From the supplement of paper PMC9732359
± gives the uncertainty stated by the source.

Assay: protein stability index of a GFP-peptide fusion (yeast GPS) (PSI 1-4); higher = more stable; sorted into four equal gates, so the index is relative within each strain
Procedure, shortened: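 Yeast carrying a pooled library were grown to mid-log phase in leucine-free medium. Each library plasmid expresses Cherry and has a tiled 17-residue yeast protein peptide fused downstream of GFP. Cells were sorted into four equal gates by GFP/Cherry ratio, and plasmids from each gate were PCR-amplified, Illumina-sequenced and assigned to strains by barcode. Summing, across gates, the read frequency times the gate number gave each peptide's protein stability index.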

| Sequence | protein stability index (doa10∆) | protein stability index (pdr5∆) | protein stability index (san1∆) | protein stability index (ubr1∆) |
| --- | --- | --- | --- | --- |
| LNRSHFATTKAECISLI [ECM29] | 1.51 ± 0.061 | 2 ± 0.051 | 1.69 ± 0.092 | 1.66 ± 0.038 |
| LNSFAFELCSLGDKELW [YJR042W/NUP85] | 1.76 ± 0.22 | 1.32 ± 0.12 |  | 1.34 ± 0.092 |
| LNSYWVNQDSTYKYFEV [RPL15A] | 3.23 ± 0.061 | 3.27 ± 0.076 | 3.32 ± 0.041 | 3.2 ± 0.058 |
| LNTLLVTSADSNLKISL [SWI1] | 2.71 ± 0.078 | 2.9 ± 0.065 | 2.89 ± 0.054 | 2.52 ± 0.08 |
| LNVQVWHIEETGEWFSS [ITC1] | 1.83 ± 0.051 | 2.03 ± 0.05 | 2.39 ± 0.059 | 2.41 ± 0.043 |
| LPDEKSDAMSIDEEDKD [YCG1] | 3.04 ± 0.17 | 2.36 ± 0.11 | 2.94 ± 0.12 | 3.06 ± 0.074 |
| LPILPIQRLRLLREKQR [YOR098C/NUP1] | 2.09 ± 0.086 | 1.55 ± 0.062 | 1.17 ± 0.25 | 2.02 ± 0.097 |
| LPKFLTVQYVRFFWKRS [UBP6] | 1.62 ± 0.04 | 1.35 ± 0.035 | 1.24 ± 0.085 | 1.19 ± 0.032 |
| LPKVRIRTRRAAELLDK [DIS3] | 1.78 ± 0.096 | 1.48 ± 0.088 | 1.3 ± 0.17 | 1.28 ± 0.072 |
| LPKYQTIQYDPPETKLP [SNF5] | 3.03 ± 0.052 | 2.96 ± 0.046 | 2.92 ± 0.04 | 3.01 ± 0.039 |
| LPNEMSQNDGFVIIRGS [RPO31] | 3.07 ± 0.19 | 3.13 ± 0.16 | 3.23 ± 0.18 |  |
| LPNIYPSTRCKLKLLRM [RPT2] | 1.33 ± 0.037 | 1.43 ± 0.049 | 1.37 ± 0.076 | 1.59 ± 0.048 |
| LPNQFPLKIHRTPYLTS [SWI1] | 2.07 ± 0.042 | 1.72 ± 0.045 | 1.65 ± 0.074 | 1.72 ± 0.038 |
| LPSDRCSKAMGDLASLV [RPP1] |  |  | 3.15 ± 0.12 |  |
| LPSGVLSRGDDEVTIRR [SMC3] | 3.44 ± 0.083 | 3.25 ± 0.12 | 3.2 ± 0.069 | 3.27 ± 0.068 |
| LPVMESLDSCTAAFTAM [YJR042W/NUP85] | 2.65 ± 0.085 | 2.37 ± 0.066 | 2.54 ± 0.071 | 2.37 ± 0.071 |
| LQDELKELQLEKESVEK [SMC3] | 3.66 ± 0.13 | 3.25 ± 0.21 | 2.7 ± 0.26 |  |
| LQETLNKSTSSEAEYSK [YIL149C/MLP2] | 3.11 ± 0.08 | 2.9 ± 0.081 | 3.27 ± 0.062 | 3.28 ± 0.068 |
| LQFKSIREIDVAGGKKA [RPS7A] | 1.45 ± 0.14 | 1.49 ± 0.11 |  | 1.21 ± 0.077 |
| LQGISTLRPRQYATVSK [RPL34A] | 2.59 ± 0.13 | 2.75 ± 0.13 |  |  |
| LQKKVASILLALTQMDQ [RPB3] | 2.88 ± 0.15 | 2.9 ± 0.14 | 2.16 ± 0.15 | 2.62 ± 0.066 |
| LQQKQRDLILKKGEYAR [SMC3] | 2.3 ± 0.12 | 2.42 ± 0.14 | 2.5 ± 0.29 | 2.71 ± 0.072 |
| LQRASSKMGAPWCVKPE [ITC1] | 3.14 ± 0.089 | 3.29 ± 0.078 | 3.33 ± 0.055 | 3.27 ± 0.066 |
| LQRKDYTSIVQCCEFMT [YML103C/NUP188] | 1.48 ± 0.059 | 1.62 ± 0.048 | 2.05 ± 0.079 | 1.9 ± 0.044 |
| LQSNSKLASTLEKISSS [SMC4] | 2.79 ± 0.04 | 2.52 ± 0.035 | 2.54 ± 0.037 | 2.53 ± 0.034 |
| LQYTALTGSPNNPLVQK [ARP7] | 2.66 ± 0.07 | 2.7 ± 0.064 | 2.34 ± 0.078 | 2.95 ± 0.045 |

| Sequence | protein stability index (doa10∆) | protein stability index (pdr5∆) | protein stability index (san1∆) | protein stability index (ubr1∆) |
| --- | --- | --- | --- | --- |
| LRKSELEYYAMLSKTKV [RPL30] | 2.62 ± 0.075 | 3.01 ± 0.078 | 2.17 ± 0.07 | 2.82 ± 0.068 |
| LRLLEVTDDDRLWLKKV [POP8] | 1.36 ± 0.061 | 1.68 ± 0.072 | 1.35 ± 0.095 | 1.61 ± 0.071 |
| LRNYLTPNVREEKQKSY [PUP1] | 3.41 ± 0.21 | 2.88 ± 0.15 | 3.39 ± 0.085 | 3.27 ± 0.16 |
| LRRVNARYVIATSTKVS [RPL6A] | 1.45 ± 0.058 | 1.34 ± 0.047 | 1.25 ± 0.095 | 1.14 ± 0.035 |
| LRSRSFKSTESNISDEK [YMR129W/POM152] |  |  | 2.88 ± 0.27 |  |
| LRWFELKPKLYYEQFRP [SIR3] | 3.21 ± 0.074 | 2.98 ± 0.067 | 2.71 ± 0.077 | 3 ± 0.047 |
| LSAPLSKELRAQYGIKA [RPL26A] | 2.91 ± 0.14 | 2.31 ± 0.12 | 3.48 ± 0.12 | 1.87 ± 0.15 |
| LSCEKITHYAVRGGNIE [RRI1] | 2.37 ± 0.062 | 2.3 ± 0.078 | 2.51 ± 0.08 | 2.19 ± 0.047 |
| LSDYNIQKESTLHLVLR [RPS31] | 2.78 ± 0.08 | 2.72 ± 0.051 | 2.23 ± 0.065 | 2.58 ± 0.058 |
| LSEEKEVIFTDVLKSQA [MCD1] | 2.92 ± 0.2 | 3.09 ± 0.23 | 3.13 ± 0.12 | 2.77 ± 0.17 |
| LSFSWAILLIINLTQTY [NUT1] | 1.5 ± 0.088 | 1.96 ± 0.069 | 2.24 ± 0.097 | 2.06 ± 0.041 |
| LSGGQKTVCAIALILAI [SMC3] |  | 1.94 ± 0.19 |  | 2.74 ± 0.12 |
| LSIAIVGKDTPFTIYDG [PRE5] | 2.87 ± 0.066 | 2.94 ± 0.054 | 2.78 ± 0.08 | 3.07 ± 0.047 |
| LSIRLTNQLKSLKGLQS [RPN8] | 1.48 ± 0.17 | 1.49 ± 0.16 | 2.62 ± 0.19 | 1.24 ± 0.079 |
| LSISVPSDVNIDVMKSQ [SNU114] | 2.86 ± 0.057 | 2.84 ± 0.057 | 2.57 ± 0.053 | 2.78 ± 0.044 |
| LSKINAIQLDYSTANEY [RPN3] | 3.13 ± 0.084 | 2.15 ± 0.066 | 3.17 ± 0.085 | 3.06 ± 0.062 |
| LSKMENVNLDDYPDDSG [NAS6] | 2.75 ± 0.11 | 3.02 ± 0.11 | 2.83 ± 0.088 | 3.05 ± 0.091 |
| LSLKRTLTDILEDELYH [RPN4] | 3.11 ± 0.1 | 3.52 ± 0.11 | 3.47 ± 0.11 | 3.15 ± 0.11 |
| LSLMLESPNYCNALIHI [SRB4] | 1.52 ± 0.044 | 1.78 ± 0.035 | 1.72 ± 0.075 | 1.75 ± 0.035 |
| LSLTAFTKNEEKLLKEL [ITC1] | 2.24 ± 0.081 | 2.29 ± 0.072 | 2.29 ± 0.08 | 2.44 ± 0.26 |
| LSMRFQRETSGMIVISM [SRB8] | 2.13 ± 0.081 | 2.05 ± 0.062 | 1.54 ± 0.067 | 1.97 ± 0.058 |
| LSNFNADINLEESIRES [SIR3] | 3.16 ± 0.12 | 2.95 ± 0.12 | 2.75 ± 0.24 | 3.4 ± 0.094 |
| LSNLSKDIKANLSSNVN [YCS4] | 2.85 ± 0.05 | 3.03 ± 0.068 | 3.04 ± 0.06 | 2.93 ± 0.046 |
| LSNSNRFELHGDMTNSD [REC8] | 2.82 ± 0.14 | 3.13 ± 0.16 | 2.58 ± 0.14 | 2.7 ± 0.2 |
| LSQSSSYLETLTALGKE [MED2] | 3.12 ± 0.097 | 3.04 ± 0.099 | 2.66 ± 0.084 | 2.44 ± 0.07 |
